Measured values: patent CN106928350A (TIANJIN INST IND BIOTECHNOLOGY CAS; SUZHOU GENEWIZ …, dated 2017)

Target: T1, HA of H3 (A/Aichi/2/1968)/PR8 H3N1 (PR8-RS) (Influenza A virus A/Aichi/2/1968 (H3), UniProt P03437 17-566)
T1 construct: whole, on cells; also called A/Aichi/2/1968 H3N1-RG
Assay: immunofluorescence on virus-infected MDCK cells, antibody 40μg/mL

B1: AF4H1K1 (antibody, V domains shown)
VH: QVQLVESGGGVVQPGTSLRLSCEASGFTSSAYAMHWVRQAPGKGLEWVAVITFDGGYQYYADSVKGRFTISRDISRNTLHLHMNSLRAEDTAVYYCARDPLTKLLPFDWVSGGYFDYWGQGTLVTVSS
VL: not shown
notes: also called AF4H1K1 IgG; AF4H1K1IgG
  binding result: binds
